# Data published in paper PMC12955871, “Structure‐Guided Engineering of a Promiscuous O‐Methyltransferase for a SAM Regeneration Biocatalysis Platform of Methylated Pharmaceuticals” (Advanced Science, 2025).
# Experiments:
# Test in all cases: HPLC product formation, Michaelis-Menten fit
# Assay type in all cases: biochemical, Selaginella moellendorffii
# CC(=O)c1ccc(O)c(O)c1O = details: 1.6 mM SAM, pH 8.0, 37 °C, no added SAH, crystal structure is the SAH ternary complex
# O=c1ccc2cc3ccoc3c(O)c2o1 = details: 1.6 mM SAM, pH 8.0, 37 °C
# [1] = tested on: O=c1c(O)c(-c2ccc(O)c(O)c2)oc2cc(O)cc(O)c12; details: 1.6 mM SAM, pH 8.0, 37 °C
substance,measurement,setting,value
SmOMT (Selaginella moellendorffii),Km,CC(=O)c1ccc(O)c(O)c1O,51.7 µM
same,Km,O=c1ccc2cc3ccoc3c(O)c2o1,225.4 µM
same,Km,[1],585.1 µM
